The target of this experiment is T1, glutamyl-tRNA synthetase GluRS, C-terminally fused to GFP (S. cerevisiae, UniProt P46655 1-708).
T1 sequence: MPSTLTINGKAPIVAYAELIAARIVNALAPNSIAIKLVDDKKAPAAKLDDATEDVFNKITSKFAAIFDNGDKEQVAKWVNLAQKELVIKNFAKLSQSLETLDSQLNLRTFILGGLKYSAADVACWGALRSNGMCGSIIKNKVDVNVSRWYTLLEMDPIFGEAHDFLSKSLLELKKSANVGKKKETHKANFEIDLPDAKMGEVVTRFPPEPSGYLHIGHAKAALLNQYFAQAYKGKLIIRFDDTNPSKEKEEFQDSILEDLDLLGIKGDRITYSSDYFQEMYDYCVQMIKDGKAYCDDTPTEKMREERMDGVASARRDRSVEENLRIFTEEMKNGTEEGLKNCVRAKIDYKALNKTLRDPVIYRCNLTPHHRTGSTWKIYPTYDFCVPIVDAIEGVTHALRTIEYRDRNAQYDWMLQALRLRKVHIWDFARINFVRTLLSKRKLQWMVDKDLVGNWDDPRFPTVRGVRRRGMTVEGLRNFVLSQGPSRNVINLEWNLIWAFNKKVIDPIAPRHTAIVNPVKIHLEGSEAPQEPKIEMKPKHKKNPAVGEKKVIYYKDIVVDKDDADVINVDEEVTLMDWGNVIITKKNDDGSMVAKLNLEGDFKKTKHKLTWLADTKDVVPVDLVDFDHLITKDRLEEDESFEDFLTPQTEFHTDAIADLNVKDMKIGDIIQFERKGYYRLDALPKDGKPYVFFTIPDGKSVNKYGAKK
Put plainly: selective ribosome profiling.

Experimental findings from PMC6372068 (Nature, 2018) are described below.

B1: nascent MetRS (ribosome-nascent chain complexes) (natural protein)
chain: MSFLISFDKSKKHPAHLQLANNLKIALALEYASKNLKPEVDNDNAAMELRNTKEPFLLFDANAILRYVMDDFEGQTSDKYQFALASLQNLLYHKELPQQHVEVLTNKAIENYLVELKEPLTTTDLILFANVYALNSSLVHSKFPELPSKVHNAVALAKKHVPRDSSSFKNIGAVKIQADLTVKPKDSEILPKPNERNILITSALPYVNNVPHLGNIIGSVLSADIFARYCKGRNYNALFICGTDEYGTATETKALEEGVTPRQLCDKYHKIHSDVYKWFQIGFDYFGRTTTDKQTEIAQHIFTKLNSNGYLEEQSMKQLYCPVHNSYLADRYVEGECPKCHYDDARGDQCDKCGALLDPFELINPRCKLDDASPEPKYSDHIFLSLDKLESQISEWVEKASEEGNWSKNSKTITQSWLKDGLKPRCITRDLVWGTPVPLEKYKDKVLYVWFDATIGYVSITSNYTKEWKQWWNNPEHVSLYQFMGKDNVPFHTVVFPGSQLGTEENWTMLHHLNTTEYLQYENGKFSKSRGVGVFGNNAQDSGISPSVWRYYLASVRPESSDSHFSWDDFVARNNSELLANLGNFVNRLIKFVNAKYNGVVPKFDPKKVSNYDGLVKDINEILSNYVKEMELGHERRGLEIAMSLSARGNQFLQENKLDNTLFSQSPEKSDAVVAVGLNIIYAVSSIITPYMPEIGEKINKMLNAPALKIDDRFHLAILEGHNINKAEYLFQRIDEKKIDEWRAKYGGQQV
In the case of B1, the “fold enrichment in footprints” value is at least 30 fold.
